Data: patent US20240141039A1 (AGENUS, published 2024)

T1: wild type full-length human CD96 isoform 1 expressed on CHO cells (human, UniProt P40200 22-585)
T1 construct: whole, on cells; also called human CD96-CHO (isoform 1)
T1 sequence (looked up): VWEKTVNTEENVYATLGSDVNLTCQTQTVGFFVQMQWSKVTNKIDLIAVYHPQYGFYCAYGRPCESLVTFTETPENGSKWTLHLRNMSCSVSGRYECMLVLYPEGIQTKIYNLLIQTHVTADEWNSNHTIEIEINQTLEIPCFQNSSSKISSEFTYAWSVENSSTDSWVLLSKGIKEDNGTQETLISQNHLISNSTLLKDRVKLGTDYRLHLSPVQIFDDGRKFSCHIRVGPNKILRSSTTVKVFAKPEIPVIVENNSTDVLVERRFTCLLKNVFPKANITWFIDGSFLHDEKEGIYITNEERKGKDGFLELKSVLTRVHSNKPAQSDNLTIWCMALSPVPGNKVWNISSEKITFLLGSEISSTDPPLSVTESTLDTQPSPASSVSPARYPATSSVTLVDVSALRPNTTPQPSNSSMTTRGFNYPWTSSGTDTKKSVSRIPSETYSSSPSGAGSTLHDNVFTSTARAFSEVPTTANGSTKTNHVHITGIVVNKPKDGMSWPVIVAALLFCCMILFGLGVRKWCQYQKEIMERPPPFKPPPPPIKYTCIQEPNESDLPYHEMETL


Experiments:
[1] = target: T2, full-length human FcγRIIIa variant V/V expressed on CHO cells (human, UniProt P08637 17-254); test: flow cytometry, human FcγRIIIa (V/V) CHO cells, geomean of 2 experiments
T2 construct: whole, on cells; also called human FcγRIIIa-CHO (variant V/V); human FcγRIIIa (V/V) CHO cells
Experimental: The ability of anti-TIGIT×CD96 multispecific molecules to bind to variant V/V or variant F/F of human FcγRIIIa expressed on the surface of CHO cells was assessed. Briefly, CHO cells were transfected with a vector encoding full-length human FcγRIIIa (human FcγRIIIa-CHO) variant V/V or F/F, and clones stably expressing FcγRIIIa (variant V/V or variant F/F) were selected.
(§1) For the antibody binding assay, a frozen aliquot of human FcγRIIIa-CHO (variant V/V or variant F/F) cells was thawed at 37° C. and then transferred to a tube containing DPBS supplemented with 0.5% Bovine Serum Albumin and 0.05% Sodium Azide (FACS Buffer). Cells were centrifuged at 300 g for five minutes. The supernatant was discarded, and cells resuspended in FACS buffer were seeded in a 96-well U-bottom tissue culture plate at a density of 2×10⁵ cells per well in 50 μL. In a separate microplate, a 2× concentrated intermediate stock of each multispecific molecule was prepared. […] After a 30-minute incubation on ice, the cells were washed twice with cold FACS Buffer, and the cells were analyzed by flow cytometry (BD LSR Fortessa Flow Cytometer). The data were analyzed using the FlowJo software by sequentially gating the FSC-A vs. SSC-A, and SSC-H vs. SSC-A. Mean fluorescence intensity (MFI) values for PE were calculated, and the data were plotted by GraphPad Prism software.

[2] = target: T1, wild type full-length human CD96 …; test: flow cytometry, human CD96 (isoform 1) CHO cells, 1 experiment
Experimental: as §1, with “CD96-CHO cells (isoform 1” for “FcγRIIIa-CHO (variant V/V”, “isoform 2)” for “variant F/F) cells”, “antibody” for “multispecific molecule”, “prepared. Antibodies were serially diluted 1-to-3 in FACS buffer. A total of 11 working dilutions ranging from 60 μg/mL to 0.001 μg/mL were prepared. Fifty microlitres of each dilution were then transferred to the microplate containing human CD96-CHO cells. The cells were then incubated for 45 minutes at 4° C.” for “prepared.”

[3] = target: T3, wild type full-length cynomolgus monkey TIGIT expressed on CHO cells (cynomolgus monkey, UniProt A0A7N9I9V4 89-312); test: flow cytometry, blocking of CD155-Fc-PE binding to cynomolgus TIGIT CHO cells, geomean of 3 experiments
T3 construct: whole, on cells; also called cynomolgus TIGIT-CHO cells
Experimental: A 4× concentrated intermediate stock of each multispecific molecule was prepared in a microplate. Antibodies were serially diluted 1-to-4 in FACS buffer. […] Lastly, 25 μL of cynomolgus TIGIT-CHO cells, prepared as described above, were added to each well. After a 30-minute incubation on ice, the cells were washed twice with cold FACS Buffer, and the cells were analyzed by flow cytometry (BD LSR Fortessa Flow Cytometer). The data were analyzed using the FlowJo software by sequentially gating on the FSC-A vs. SSC-A and SSC-H vs. SSC-A. Mean fluorescence intensity (MFI) values for PE were calculated, and the data were plotted by GraphPad Prism software and analyzed as described above.

T2 sequence (P08637 other isoform, or with tags, fused parts or gaps mutant limits assumed): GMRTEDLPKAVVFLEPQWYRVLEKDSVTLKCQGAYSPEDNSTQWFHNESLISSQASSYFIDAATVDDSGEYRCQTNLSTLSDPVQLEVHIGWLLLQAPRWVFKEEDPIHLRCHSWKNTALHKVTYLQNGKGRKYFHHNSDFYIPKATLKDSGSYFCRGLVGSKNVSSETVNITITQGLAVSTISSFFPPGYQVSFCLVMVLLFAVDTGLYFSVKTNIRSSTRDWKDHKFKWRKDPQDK
T3 sequence (A0A7N9I9V4 entry or part of it): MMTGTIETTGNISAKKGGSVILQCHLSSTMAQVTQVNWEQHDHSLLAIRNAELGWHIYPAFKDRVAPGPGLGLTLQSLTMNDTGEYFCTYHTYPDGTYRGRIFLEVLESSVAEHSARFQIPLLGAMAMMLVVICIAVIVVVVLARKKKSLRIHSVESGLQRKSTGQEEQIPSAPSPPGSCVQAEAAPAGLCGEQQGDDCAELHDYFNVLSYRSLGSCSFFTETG

Binder	EC50 [1]	EC50 [2]	IC50 [3]
anti-TIGIT×CD96 multispecific molecule BA123 (bispecific antibody, human IgG1, kappa, lambda, copies: 1 + 1 + 1 + 1) heavy 1: QVQLVQSGAEVKKPGASVKVSCKASGYTFTSYGISWVRQAPGQGLEWMGWISAYNANTNYAQKLQGRVTMTTDTSTSTAYMELRSLRSDDTAVYYCARSAGVLGGMDVWGRGTLVTVSSASTKGPSVFPLAPSSKSTSGGTAALGCLVKDYFPEPVTVSWNSGALTSGVHTFPAVLQSSGLYSLSSVVTVPSSSLGTQTYICNVNHKPSNTKVDKRVEPKSCDKTHTCPPCPAPELLGGPDVFLFPPKPKDTLMISRTPEVTCVVVDVSHEDPEVKFNWYVDGVEVHNAKTKPREEQYNSTYRVVSVLTVLHQDWLNGKEYKCKVSNKALPAPIEKTISKAKGQPREPQVYTLPPSREEMTKNQVSLSCAVKGFYPSDIAVEWESNGQPENNYKTTPPVLDSDGSFFLVSKLTVDKSRWQQGNVFSCSVMHEALHNHYTQKSLSLSPG light 1: not shown heavy 2: EVQLVQSGAEVKKPGSSVKVSCKASGYTFASYGISWVRQAPGQGLEWMGGITPFFNRVDVAEKFQGRVTITADKSTSTAYIELSSLRSEDTAVYYCARDLRRGGVGDAFDIWGRGTLVTVSSASTKGPSVFPLAPSSKSTSGGTAALGCLVKDYFPEPVTVSWNSGALTSGVHTFPAVLQSSGLYSLSSVVTVPSSSLGTQTYICNVNHKPSNTKVDKRVEPKSCDKTHTCPPCPAPELLGGPDVFLFPPKPKDTLMISRTPEVTCVVVDVSHEDPEVKFNWYVDGVEVHNAKTKPREEQYNSTYRVVSVLTVLHQDWLNGKEYKCKVSNKALPLPEEKTISKAKGQPREPQVYTLPPSREEMTKNQVSLWCLVKGFYPSDIAVEWESNGQPENNYKTTPPVLDSDGSFFLYSKLTVDKSRWQQGNVFSCSVMHEALHNHYTQKSLSLSPG light 2: QSALTQPRSVSGSPGQSVTISCTGTSPDVGSHAYRSWYQQHPGKAPKLMIYEVSYRPSGVSNRFSGSKSGNTASLTISGLQAEDEADYYCSSYPPSSATVFGAGTKLTVLGQPKAAPSVTLFPPSSEELQANKATLVCLISDFYPGAVTVAWKADSSPVKAGVETTTPSKQSNNKYAASSYLSLTPEQWKSHRSYSCQVTHEGSTVEKTVAPTEC	0.189 µg/mL	0.0113 µg/mL	
anti-TIGIT monospecific antibody BA148 (antibody, human IgG1, lambda, IgG1; also called anti-TIGIT IgG1 antibody BA148) heavy: EVQLVQSGAEVKKPGSSVKVSCKASGYTFASYGISWVRQAPGQGLEWMGGITPFFNRVDVAEKFQGRVTITADKSTSTAYIELSSLRSEDTAVYYCARDLRRGGVGDAFDIWGRGTLVTVSSASTKGPSVFPLAPSSKSTSGGTAALGCLVKDYFPEPVTVSWNSGALTSGVHTFPAVLQSSGLYSLSSVVTVPSSSLGTQTYICNVNHKPSNTKVDKRVEPKSCDKTHTCPPCPAPELLGGPDVFLFPPKPKDTLMISRTPEVTCVVVDVSHEDPEVKFNWYVDGVEVHNAKTKPREEQYNSTYRVVSVLTVLHQDWLNGKEYKCKVSNKALPLPEEKTISKAKGQPREPQVYTLPPSREEMTKNQVSLTCLVKGFYPSDIAVEWESNGQPENNYKTTPPVLDSDGSFFLYSKLTVDKSRWQQGNVFSCSVMHEALHNHYTQKSLSLSPGK light: QSALTQPRSVSGSPGQSVTISCTGTSPDVGSHAYRSWYQQHPGKAPKLMIYEVSYRPSGVSNRFSGSKSGNTASLTISGLQAEDEADYYCSSYPPSSATVFGAGTKLTVLGQPKAAPSVTLFPPSSEELQANKATLVCLISDFYPGAVTVAWKADSSPVKAGVETTTPSKQSNNKYAASSYLSLTPEQWKSHRSYSCQVTHEGSTVEKTVAPTEC			0.243 µg/mL
anti-TIGIT×CD96 multispecific molecule BA127 (bispecific antibody, human IgG1, kappa, lambda, Anti-CD96 arm = BA139, anti-TIGIT arm = BA150; copies: 1 + 1 + 1 + 1) heavy 1: QVQLVQSGAEVKKPGASVKVSCKASGYTFTTYALHWVRQAPGQRLEWMGWINTGSGDTKYSQKFQGRVTITRDTSASTAYMELSSLRSEDTAVYYCARSLGVYYGMDVWGQGTLVTVSSASTKGPSVFPLAPSSKSTSGGTAALGCLVKDYFPEPVTVSWNSGALTSGVHTFPAVLQSSGLYSLSSVVTVPSSSLGTQTYICNVNHKPSNTKVDKRVEPKSCDKTHTCPPCPAPELLGGPDVFLFPPKPKDTLMISRTPEVTCVVVDVSHEDPEVKFNWYVDGVEVHNAKTKPREEQYNSTYRVVSVLTVLHQDWLNGKEYKCKVSNKALPAPIEKTISKAKGQPREPQVYTLPPSREEMTKNQVSLSCAVKGFYPSDIAVEWESNGQPENNYKTTPPVLDSDGSFFLVSKLTVDKSRWQQGNVFSCSVMHEALHNHYTQKSLSLSPG light 1: not shown heavy 2: EVQLVQSGAEVKKPGSSVKVSCKASGYTFASYGISWVRQAPGQGLEWMGGITPFFNRVDVAEKFQGRVTITADKSTSTAYIELSSLRSEDTAVYYCARDLRRGGVGDAFDIWGRGTLVTVSSASTKGPSVFPLAPSSKSTSGGTAALGCLVKDYFPEPVTVSWNSGALTSGVHTFPAVLQSSGLYSLSSVVTVPSSSLGTQTYICNVNHKPSNTKVDKRVEPKSCDKTHTCPPCPAPELLGGPDVFLFPPKPKDTLMISRTPEVTCVVVDVSHEDPEVKFNWYVDGVEVHNAKTKPREEQYNSTYRVVSVLTVLHQDWLNGKEYKCKVSNKALPLPEEKTISKAKGQPREPQVYTLPPSREEMTKNQVSLWCLVKGFYPSDIAVEWESNGQPENNYKTTPPVLDSDGSFFLYSKLTVDKSRWQQGNVFSCSVMHEALHNHYTQKSLSLSPG light 2: QSALTQPRSVSGSPGQSVTISCTGTSPDVGSHAYRSWYQQHPGKAPKLMIYEVSYRPSGVSNRFSGSKSGNTASLTISGLQAEDEADYYCSSYPPSSATVFGAGTKLTVLGQPKAAPSVTLFPPSSEELQANKATLVCLISDFYPGAVTVAWKADSSPVKAGVETTTPSKQSNNKYAASSYLSLTPEQWKSHRSYSCQVTHEGSTVEKTVAPTEC	0.148 µg/mL	0.0489 µg/mL	
